Source: PMC11673900 (Journal of Translational Medicine, 2024)

Biological target: GST-tagged PARP1, full-length (human, UniProt P09874 1-1014)
Experiment: co-IP

GST-tagged PARP1, full-length, sequence (P09874 whole entry): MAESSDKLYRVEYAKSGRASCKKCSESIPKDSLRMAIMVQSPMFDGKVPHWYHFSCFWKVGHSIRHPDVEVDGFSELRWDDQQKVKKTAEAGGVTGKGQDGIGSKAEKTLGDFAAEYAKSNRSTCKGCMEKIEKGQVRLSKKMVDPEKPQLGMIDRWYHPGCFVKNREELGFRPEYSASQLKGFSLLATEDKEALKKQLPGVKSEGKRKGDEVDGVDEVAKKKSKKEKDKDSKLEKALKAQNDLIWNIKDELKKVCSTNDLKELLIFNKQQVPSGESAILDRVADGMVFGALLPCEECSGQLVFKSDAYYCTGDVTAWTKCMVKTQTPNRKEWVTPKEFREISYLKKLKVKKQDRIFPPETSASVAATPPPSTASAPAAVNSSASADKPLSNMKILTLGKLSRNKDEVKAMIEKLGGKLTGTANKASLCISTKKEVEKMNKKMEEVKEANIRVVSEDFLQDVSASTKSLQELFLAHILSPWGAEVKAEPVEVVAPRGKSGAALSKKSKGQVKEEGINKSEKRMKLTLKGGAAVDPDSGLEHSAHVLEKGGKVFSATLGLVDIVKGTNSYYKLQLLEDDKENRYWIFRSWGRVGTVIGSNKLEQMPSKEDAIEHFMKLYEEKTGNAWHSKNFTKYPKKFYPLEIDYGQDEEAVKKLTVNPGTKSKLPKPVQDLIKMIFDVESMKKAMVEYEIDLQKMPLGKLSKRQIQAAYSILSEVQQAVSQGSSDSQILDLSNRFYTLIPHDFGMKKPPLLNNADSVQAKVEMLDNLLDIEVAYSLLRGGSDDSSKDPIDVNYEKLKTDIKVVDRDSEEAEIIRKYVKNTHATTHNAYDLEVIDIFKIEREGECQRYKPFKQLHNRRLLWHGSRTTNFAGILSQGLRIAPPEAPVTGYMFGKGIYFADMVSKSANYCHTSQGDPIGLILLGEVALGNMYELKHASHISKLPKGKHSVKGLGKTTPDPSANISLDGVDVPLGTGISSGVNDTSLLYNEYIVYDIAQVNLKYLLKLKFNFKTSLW

B1: MBP-tagged NONO (natural protein, human, UniProt Q15233 1-471, looked up)
chain: MQSNKTFNLEKQNHTPRKHHQHHHQQQHHQQQQQQPPPPPIPANGQQASSQNEGLTIDLKNFRKPGEKTFTQRSRLFVGNLPPDITEEEMRKLFEKYGKAGEVFIHKDKGFGFIRLETRTLAEIAKVELDNMPLRGKQLRVRFACHSASLTVRNLPQYVSNELLEEAFSVFGQVERAVVIVDDRGRPSGKGIVEFSGKPAARKALDRCSEGSFLLTTFPRPVTVEPMDQLDDEEGLPEKLVIKNQQFHKEREQPPRFAQPGSFEYEYAMRWKALIEMEKQQQDQVDRNIKEAREKLEMEMEAARHEHQVMLMRQDLMRRQEELRRMEELHNQEVQKRKQLELRQEEERRRREEEMRRQQEEMMRRQQEGFKGTFPDAREQEIRMGQMAMGGAMGINNRGAMPPAPVPAGTPAPPGPATMMPDGTLGLTPPTTERFGQAATMEGIGAIGGTPPAFNRAAPGAEFAPNKRRRY
binding result: binds
